Laboratory results from article PMC3100304, “The Interplay between NF-kappaB and E2F1 Coordinately Regulates Inflammation and Metabolism in Human Cardiac Cells” (PLoS ONE, 2011).

Molecular target: T1, p65 subunit of NF-κB (human (endogenous in AC16), UniProt Q04206 1-551)
T1 construct: p65 subunit of NF-κB (RelA), endogenous in human cardiac AC16 cells; precipitated with an anti-p65 antibody; also called RelA/p65; source: endogenous, human cardiac AC16 cells, nuclear extract
Assay: co-IP; AC16 nuclear extracts (25 µg) precipitated with 4 µg anti-p65 and protein A-agarose at 4°C, blotted with anti-E2F1; cells with or without TNF-α (100 ng/ml, 24 h), parthenolide (10 µmol/L), siRNA to p65, or LacZ- or E2F1-carrying plasmids
Conditions: partners not purified

T1 sequence (Q04206 whole entry): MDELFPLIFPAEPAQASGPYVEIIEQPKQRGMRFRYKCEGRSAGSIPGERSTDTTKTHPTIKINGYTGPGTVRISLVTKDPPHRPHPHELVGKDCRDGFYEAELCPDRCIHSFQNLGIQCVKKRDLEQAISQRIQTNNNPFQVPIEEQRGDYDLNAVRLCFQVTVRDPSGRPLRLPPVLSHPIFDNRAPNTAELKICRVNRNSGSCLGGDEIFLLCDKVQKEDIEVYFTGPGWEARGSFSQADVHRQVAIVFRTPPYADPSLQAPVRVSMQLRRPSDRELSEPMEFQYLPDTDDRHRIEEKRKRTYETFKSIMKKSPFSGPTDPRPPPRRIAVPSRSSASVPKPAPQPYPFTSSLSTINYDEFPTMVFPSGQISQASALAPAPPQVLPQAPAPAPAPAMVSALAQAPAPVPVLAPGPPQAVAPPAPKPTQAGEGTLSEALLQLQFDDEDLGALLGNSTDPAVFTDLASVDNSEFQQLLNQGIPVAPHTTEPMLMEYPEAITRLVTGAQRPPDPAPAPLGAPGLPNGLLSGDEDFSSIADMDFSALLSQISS

B1: E2F1 overexpressed from the pSG5L/E2F1 construct (natural protein)
chain: not shown
notes: human E2F1 expressed from the pSG5L/E2F1 construct (human gene, Addgene plasmid 10736); The transfected cells also hold endogenous E2F1; source: AC16 cells, transfected (Lipofectamine 2000), in nuclear extract
Question: Which “fold of p65-E2F1 association vs. LacZ” value does the source give for B1 here?
Answer: 2 fold

Question: And the “fold of p65-E2F1 association vs. LacZ (with TNF-α)” value?
Answer: 4 fold
